This note sets out measurements from the nanobody polyreactivity screen of Harvey et al. (2022).

The nature of the data set: yeast display, Sf9 membrane polyspecificity reagent, FACS + sequencing; frameworks hold sequencing errors. Put shortly: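 Nanobodies came from a synthetic yeast display library in Saccharomyces cerevisiae BJ5465, induced with galactose for 36–48 hours and stained for 1 hour at 4 °C with 10% biotinylated, detergent-solubilized Sf9 membrane reagent. Cells were enriched on streptavidin microbeads and then FACS-sorted, with low and high (top ~1%) gates set on anti-HA fluorescence for expression and streptavidin fluorescence for reagent binding. Each polyreactivity label reflects the gate a clone came from. Genes were amplified by colony PCR, sequenced by MiSeq 2 × 250 and filtered by CDR length.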
With “QVQLVESGGGLVQAGGSLRLSCAASGYIFVPYAMGWSRQAPGKERELVAAISRGGNTNYADSVKGRFTISRDNAKNTVYLQMNSLKPEDTAVYYCNADLVQYWGRRRWYDYWGQGTQVTVSS”, the “polyreactivity (PSR sort gate)” value is listed as “low polyreactivity”.
Regarding “QLQLVESGGGLVQAGGSLRISCAASGFIFNGYAMGWSRQAPGKERELVAAITADVGDTYYADSVKGRFTLSRDNAKYTVYLQLNSLKPDDPAVYYCAADQAEWLDPDDYWGQGTQVTVSS”, the “polyreactivity (PSR sort gate)” value was “low polyreactivity”.
Under “QVQIVESGGGLVQAGGSLSLSCAASGFIFSVNDMGWYRQAPGKERELVAAISRDSGSKYYADSVKGRFTISRDNAQNSVYLEMISLKPEDTAVYDCNGEGQWVWDPYGVYDDDSYNYWGQGTQVTVSS” stands “low polyreactivity”; under “QVQLVESGGGLYQARGSLRLSCAASGSIFLDNAKGWYRQAPGKERELVAAISSGGNTNYADSVKGRFTISRDNAKNTVYLQINSLKPEDTAVYYCAADPTKWHYYLPRYYYWGQGTQVTLSS”, “low polyreactivity”; under “QVQLVESGGGLVQAGGSLRLSCAASGFIIRKYAMGWYRPAPGKEWELVAAISGRADSTYYADSVKGRFTISRDNAKNTVYLQMNSLKPDDTAVYYCAAYWHSKIGKGYDYWGQGTQVTVSS”, “high polyreactivity”.
In the case of “QVQLVESGGGLVQAGGSLRLSCAASGFTFQYYAMGWYRQAPVKERELVAAINWSGGRTYYADSVKGRFTISRDNAKNTVYLQMNSLKPEDTAVYYCAAPRSFSGGYGYVSYDYWGQGTQVTVSS”, the “polyreactivity (PSR sort gate)” value is listed as “high polyreactivity”.
To “QVQLVESVGGLVQAGGSLRLSCAASGIIFRANAMGWYRQAPGKERELVAAISGRGSSTTYADSVKGRFTISRDNAKNTVYLQMNSLKPEDTAVYYCAAGYGKWFATWRSQKYDYWGQGTQVTVSS” belongs “high polyreactivity”; to “QGQLVESGGGVVQAGGSLRLSSAASRRIFYSYPLGWYRPAPGKERELVAAISSSGGITYYADSVKGRFTISRDNAKNTGSLELNSLKPEDTAVYYCAARRRYKSGYWGQGTQVTVSS”, “high polyreactivity”; to “QVQLVESGGGLVQAGGSLRLSCAASGRTLGHNAMGWYRPAPGKERELVAAITSRGGTTYADSVKGRFTISRDNAKKTVYLQMNSLKPEETAVYYCAARVSGSRKYYYWGQGTQVTVSS”, “high polyreactivity”.
Under “QVQLVESGGGLVQAGGSLRLSCAASGSIFDSNAMGRYRQAPGKERELVAAISLSGGSTYYADSVKGRFTISRDNAKNTVYLQMNSLKPVDTAVYYCAKDGWYEYYWGQGTQVTVSS” stands “low polyreactivity”; under “QVQLVESGGGLVQAGGSLRLSCAASGFIFKTYAMGWYRQAPGKERELVAAITGTGTSTYYADSVKGRFTISRDNAKNTVYLQMNSLKTEDTAVYYCAAEFGGRSYYPRHEYWGQGTQVTVSS”, “low polyreactivity”.
To “QVQLVESGGGLVQAGGSLRLSCAASGFTFEFNVMGWYRQAPGKERELVASIRWGSTSYADSVKGRFTISRDNAKNTVYLQMNSLKPEDTALYDCAAVTYDYWRQGTQVTVSS” belongs “low polyreactivity”; to “QVQLVESGGRLVQAGGSLRLRCAASGRTFVTNAMGWYRQAPGQERELVAAISGSGGSTYYADSVKGRFTISRDNAKNTFYLQMNSLKPEDTAVYDCATSYSLGYVRYGYWGQGSQVTVSS”, “high polyreactivity”.
For “QVQLVESGGGLVQSGGSLRLSCAASGSTFVSNAMGWYRQAPGKERELFAAINGSGGITYYADSVKGRFTISRDNAKNTVYLQMNSLKPEDTAVYYCAAEYDGPYTWVDYYYHYGYWGQGTEVTVSS”, the “polyreactivity (PSR sort gate)” value is “low polyreactivity”.
Regarding “QVQLVESGGGLVQAGGSLRLSCAASGIIFVAYAMGWYRPAPGKERELVAAITKSGVRTYYADSVKGRFTISRGNAKNTVYLQMNSLKPEDTAVYYCAADRGVGVYYWGQGTQATVSS”, the “polyreactivity (PSR sort gate)” value was “high polyreactivity”.
Under “QVQLVESGGGLVQAGGSLRLSCAASGSIFRGYAMGWYRQAPGKERELVAVITSGGSTDYADSVKGRFTISRDNAKNTVYLQMNSLKPEDTAVYYCAALPGGYYDRGEYDYWGQGTQVTVSS” stands “low polyreactivity”.
On to “QVQLQESGGGLVQAGGSLRLSCAASGSISYPRTMGWYREAPGKEREFVAGIGVGGTTYYADSVKGRFTISRDNAKNTVYLQMNSLKPEDAAVYYCAVAAYYDKYYVYWGQGTQVTVSC”, for which the “polyreactivity (PSR sort gate)” value is reported as “low polyreactivity”.
